Test results published in patent publication EP4700046A1.

Target: 6xHis-SUMO-CXCR2(NTD) (human) (UniProt P25025)
Assay: BLI (Octet R4), His-tagged SUMO-CXCR2(NTD) on HIS1K biosensor, IgG as analyte, 1:1 model

UniProt P25025, sequence (P25025 1-48): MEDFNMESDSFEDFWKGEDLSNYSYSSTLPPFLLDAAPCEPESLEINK

Kd [nM]	Binder
8.9	IgG_18 (antibody, part only; not given: VL CDR2; constant regions, V domains shown, part only) VH: EVQLLESGGGLVQPGGSLRLSCAASGFTFSNYAMSWVRQAPGKGLEWVSSISPSGSSKYYADSVKGRFTISRDNSKNTLYLQMNSLRAEDTAVYYCAKHNRHFDYWGQGTLVTVSS VL, part: QSVLTQPPSASGTPGQRVTISCTGSSSNIGSHYVSWYQQLPGTAPKLLIYHRPSGVPDRFSGSKSGTSASLAISGLRSEDEADYYCGSWDDSLNAYVFGGGTKLTVL
5.6	IgG_56 (antibody, part only; not given: VL CDR2; constant regions, V domains shown, part only) VH: EVQLLESGGGLVQPGGSLRLSCAASGFTFSGYPMSWVRQAPGKGLEWVSSISSSGGNTYYADSVKGRFTISRDNSKNTLYLQMNSLRAEDTAVYYCARFGIHHPDRALYYANAMDVWGQGTLVTVSS VL, part: QSVLTQPPSASGTPGQRVTISCSGSSSNIGNNDVNWYQQLPGTAPKLLIYQRPSGVPDRFSGSKSGTSASLAISGLRSEDEADYYCATWDASLSAYVFGGGTKLTVL
250	IgG_54 (antibody, part only; not given: VL CDR2; constant regions, V domains shown, part only) VH: EVQLLESGEGLVQPGGSLRLSCAASGFTFSNYSMSWVRQAPGKGLEWVSGISSGGGSKYYADSVKGRFTISRDNSKNTLYLQMNSLRAEDTAVYYCARQATAFDYWGQGTLVTVSS VL, part: QSVLTQPPSASGTPGQRVTISCTGSSSNIGNNSVTWYQQLPGTAPKLLIYNRPSGVPDRFSGSKSGTSASLAISGLRSEDEADYYCGTWDDSLSAYVFCGGTKLTVL
